# B1: HA-tagged Arl6IP5 (ADP ribosylation factor-like GTPase 6-interacting protein 5) (natural protein, human, UniProt O75915 1-188, looked up)
# chain: MDVNIAPLRAWDDFFPGSDRFARPDFRDISKWNNRVVSNLLYYQTNYLVVAAMMISIVGFLSPFNMILGGIVVVLVFTGFVWAAHNKDVLRRMKKRYPTTFVMVVMLASYFLISMFGGVMVFVFGITFPLLLMFIHASLRLRNLKNKLENKMEGIGLKRTPMGIVLDALEQQEEGINRLTDYISKVKE
# notes: Arl6IP5, human, cDNA in pCMV vector with N-terminal HA tag; ER membrane protein; tested in the membrane fraction, not solubilised; also called HA-Arl6IP5; PRAF3; source: COS-7, transfected (PEI), crude membrane fraction; not shown: HA, N-terminal, kept
# Biological target: the molecule itself
# Assay: SDS-PAGE and immunoblot without cross-linker (SDS-resistant dimer); same membrane fraction of COS-7 cells transfected with HA-Arl6IP5, without BS3; anti-HA immunoblot
protein,measurement,value
B1,stoichiometry N,2
